From US20130171133A1 (IMPERIAL INNOVATIONS, published 2013) come the findings set out here.

The target of assay [1] is HER2 (full length, from SK-OV-3 derived cell lysates) (human, UniProt P04626 23-1255). Nature of the assay: cell-based or functional assay.
Assay [2] deals with T1, EphA2 (from cell lysates) (human, UniProt P29317 24-976).
T1 construct: whole, on cells; Tested by co-immunoprecipitation from cell lysates
As to the kind of experiment: co-IP and reciprocal co-IP, FIG. 17A.

In assay [3] the target is T2, FGFR1 (full length, from cell lysates; endogenous or SK-OV-3 cells transiently transfected with FGFR1 cDNA) (human, UniProt P11362 22-822).
T2 construct: whole, on cells; Tested from detergent cell lysates (co-IP, GST pull-down); also called fibroblast growth factor receptor 1
As to the kind of experiment: co-IP with OPCML Ab, immunoblot with anti-FGFR1 ECD Ab, FIG. 2A(ii). As for the experimental part:
Cell layers were washed in PBS and incubated for 30 minutes in lysis buffer (1% TritonX-100, 10 mM Tris pH8.0, 150 mM NaCl, 2.5 mM MgCl₂, 5 mM EGTA, 1 mM Na₃VO₄, 50 mM NaF and […] (Roche). Cell Lysates were then cleared by centrifugation at 13,000 rpm for 20 minutes at 4° C. and aliquots containing equal amounts of protein were incubated with the appropriate antibody before addition of secondary antibody conjugated to sepharose resin. Beads were then washed 3× with lysis buffer and eluted by heating for 5 minutes in […] of SDS sample buffer.
(A western blot detects proteins with antibodies after separation by electrophoresis.)

T2 sequence (P11362 22-822): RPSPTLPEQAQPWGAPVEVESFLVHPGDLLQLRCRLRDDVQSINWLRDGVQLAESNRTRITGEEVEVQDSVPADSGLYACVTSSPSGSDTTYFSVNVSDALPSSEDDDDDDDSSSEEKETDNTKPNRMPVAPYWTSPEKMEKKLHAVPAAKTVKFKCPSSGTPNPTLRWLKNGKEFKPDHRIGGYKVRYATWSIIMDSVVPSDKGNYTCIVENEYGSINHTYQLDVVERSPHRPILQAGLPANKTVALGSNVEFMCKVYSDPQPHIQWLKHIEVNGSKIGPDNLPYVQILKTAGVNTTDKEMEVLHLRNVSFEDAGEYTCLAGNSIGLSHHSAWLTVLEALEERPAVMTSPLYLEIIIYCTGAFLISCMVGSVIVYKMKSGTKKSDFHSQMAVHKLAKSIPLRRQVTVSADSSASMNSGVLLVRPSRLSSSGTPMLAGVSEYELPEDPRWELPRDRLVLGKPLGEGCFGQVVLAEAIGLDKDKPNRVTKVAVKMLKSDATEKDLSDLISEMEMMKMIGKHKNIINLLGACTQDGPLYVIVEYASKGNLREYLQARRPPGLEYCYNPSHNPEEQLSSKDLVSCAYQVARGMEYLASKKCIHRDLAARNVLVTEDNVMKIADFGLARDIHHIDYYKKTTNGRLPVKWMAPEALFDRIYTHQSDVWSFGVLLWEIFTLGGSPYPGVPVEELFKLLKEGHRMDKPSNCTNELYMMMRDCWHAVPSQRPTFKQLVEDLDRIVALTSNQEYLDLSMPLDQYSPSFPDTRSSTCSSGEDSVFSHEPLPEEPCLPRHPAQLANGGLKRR

B1: OPCML (opioid binding protein cell adhesion molecule), human, expressed in cells (stably transfected SK-OV-3 lines BKS2.1 and SKOBS-3.5) (other)
chain: GVPVRSGDATFPKAMDNVTVRQGESATLRCTIDDRVTRVAWLNRSTILYAGNDKWSIDPRVIILVNTPTQYSIMIQNVDVYDEGPYTCSVQTDNHPKTSRVHLIVQVPPQIMNISSDITVNEGSSVTLLCLAIGRPEPTVTWRHLSVKEGQGFVSEDEYLEISDIKRDQSGEYECSALNDVAAPDVRKVKITVNYPPYISKAKNTGVSVGQKGILSCEASAVPMAEFQWFKEETRLATGLDGMRIENKGRMSTLTFFNVSEKDYGNYTCVATNKLGNTNASITLYGPGAVIDGVN
modifications: GPI anchor at N322; N-linked glycosylation
notes: Full OPCML cDNA in pcDNA3.1zeo, expressed in SK-OV-3 derived lines; immunoprecipitated from Triton X-100 cell lysates; also called OBCAM; OPCML polypeptide
Take B1: the “fold decrease in effective concentration of lapatinib required to abolish the EGF induced phospho-ERK signal, BKS2.1 against SKOBS-V1.2” value in assay [1] came to 10 fold. For the same molecule, the binding result in assay [2] and in assay [3] was “binds” in each case.
